The values below are quoted from earlier work in publication PMC10950897, “VCF1 is a p97/VCP cofactor promoting recognition of ubiquitylated p97-UFD1-NPL4 substrates” (Nature Communications, 2024).

For the data set, the target named is p97 (Homo sapiens) (UniProt P55072).
Sequence of p97 (Homo sapiens) (P55072 2-806): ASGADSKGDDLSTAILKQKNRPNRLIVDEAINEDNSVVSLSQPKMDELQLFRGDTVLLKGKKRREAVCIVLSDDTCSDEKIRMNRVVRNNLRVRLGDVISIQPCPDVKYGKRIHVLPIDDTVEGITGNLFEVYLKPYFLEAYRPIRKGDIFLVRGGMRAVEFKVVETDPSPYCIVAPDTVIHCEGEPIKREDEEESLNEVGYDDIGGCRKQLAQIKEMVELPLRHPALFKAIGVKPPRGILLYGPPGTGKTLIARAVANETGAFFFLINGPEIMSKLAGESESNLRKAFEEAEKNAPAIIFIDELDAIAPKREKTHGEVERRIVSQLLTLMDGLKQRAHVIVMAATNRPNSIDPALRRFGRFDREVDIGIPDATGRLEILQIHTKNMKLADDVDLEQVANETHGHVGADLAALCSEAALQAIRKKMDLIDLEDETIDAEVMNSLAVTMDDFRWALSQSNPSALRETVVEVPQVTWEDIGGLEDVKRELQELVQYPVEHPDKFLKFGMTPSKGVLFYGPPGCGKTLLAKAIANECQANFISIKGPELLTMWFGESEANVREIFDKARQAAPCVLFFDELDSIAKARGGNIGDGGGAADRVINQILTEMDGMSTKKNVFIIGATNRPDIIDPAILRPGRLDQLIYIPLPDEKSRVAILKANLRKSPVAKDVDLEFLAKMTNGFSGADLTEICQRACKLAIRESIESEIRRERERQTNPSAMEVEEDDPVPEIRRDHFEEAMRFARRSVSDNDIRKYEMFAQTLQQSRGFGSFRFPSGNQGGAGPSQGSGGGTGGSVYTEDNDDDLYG

Sequence of p47 (Q9UNZ2 whole entry): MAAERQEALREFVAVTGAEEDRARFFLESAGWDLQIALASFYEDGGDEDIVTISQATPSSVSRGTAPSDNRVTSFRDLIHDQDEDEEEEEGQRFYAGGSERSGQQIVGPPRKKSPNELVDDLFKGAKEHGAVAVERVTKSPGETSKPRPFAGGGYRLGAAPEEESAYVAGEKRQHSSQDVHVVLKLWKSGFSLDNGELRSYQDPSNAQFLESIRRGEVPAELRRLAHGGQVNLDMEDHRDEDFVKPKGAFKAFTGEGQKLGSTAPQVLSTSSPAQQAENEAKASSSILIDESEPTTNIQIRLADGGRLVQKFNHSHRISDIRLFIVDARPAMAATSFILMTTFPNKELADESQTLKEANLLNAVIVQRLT

One may read the Kd as the concentration at which binding is half-saturated. In the case of p47 (from UniProt Q9UNZ2), the Kd was 350 nM.
